± gives the standard deviation of the averaged measurements.
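Further: PSI is a weighted mean of sequencing reads over stability bins, variants kept only with over 10 reads, mCherry proximal and sfGFP distal, peptide attached via GGGS linker.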

The test system of the data set is Saccharomyces cerevisiae. In words: protein stability index of tFT-peptide fusion (C-terminal peptide) (PSI (0-1 scale)); higher = more stable (slower turnover). As to conditions: genetic background: wild type; temperature: 30 C. The method, then:
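Multiplexed protein stability (MPS) profiling in S. cerevisiae. Random 12-aa peptides (tFT-X12 library) are fused to the C-terminus of a sfGFP-mCherry tandem fluorescent timer, after mCherry and a GGGS linker. Cells are FACS-sorted into 8 mCherry/sfGFP bins and deep-sequenced. The protein stability index (PSI) is the read-weighted bin average, scaled from 0 (unstable) to 1 (stable). Only peptides with >10 reads are reported; cells were grown at 30 °C in SC-His with glucose.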
Take GREGKEKKKPRR: the protein stability index stood at 0.696 ± 0.097.

For the sequence GREGKHLGAPPS, the protein stability index amounted to 0.68 ± 0.032.

GREGQGRGGQQG registered a protein stability index of 0.629 ± 0.05. Under GRERGTEKGESG stands 0.631 ± 0.11; under GRERMVVVSCGS, 0.629 ± 0.043.

GRGDNRKVDGEG came in with a protein stability index of 0.671 ± 0.061.

Consider GRGGGGGRDREA, for which the protein stability index stood at 0.703 ± 0.076. As to GRGGGRGVGVVG, the protein stability index amounted to 0.6345 ± 0.0028. GRGGLGGGEWDR displayed a protein stability index of 0.711 ± 0.0028. Consider GRGGPSGAKAHR, for which the protein stability index worked out at 0.684 ± 0.026.

With GRGGTYVVLWGV, the protein stability index turned out to be 0.661 ± 0.1. GRGKGNEREVRT had a protein stability index of 0.656 ± 0.022.

GRGLGRVMRGRV: the protein stability index came out at 0.6182 ± 0.0059. In the case of GRGLSSLCRRFS, the protein stability index was determined as 0.691 ± 0.044. GRGRDDKTYKKT had a protein stability index of 0.669 ± 0.031. In the case of GRGRGEVMNGRG, the protein stability index was 0.574 ± 0.0044. The result for GRGRLLYWEKWL reads 0.66 ± 0.03; that for GRIRGCSPFPLW, 0.63 ± 0.094. As for GRKCWDRSGWTV, the protein stability index was determined as 0.771 ± 0.014. GRKIIIRKNKIK returned a protein stability index of 0.613 ± 0.05. Turning to GRKKKINDDKKN, the protein stability index stood at 0.688 ± 0.071. As for GRLGCAVCGSRG, the protein stability index worked out at 0.708 ± 0.041.

Regarding GRLLRVSCHGVS, the protein stability index came to 0.701 ± 0.019. GRNFSHKKRGKY gave a protein stability index of 0.685 ± 0.03.

With GRPRPRSGWILL, the protein stability index amounted to 0.672 ± 0.067. Sequence GRQLNDSISTLK displayed a protein stability index of 0.642 ± 0.015. Sequence GRQVTSTLTKLL showed a protein stability index of 0.617 ± 0.18. Take GRRCKNMKKMSW: the protein stability index stood at 0.674 ± 0.046. Under GRRGRWCAGQWG stands 0.6743 ± 0.0062.

Regarding GRRLGREWGDAP, the protein stability index was determined as 0.721 ± 0.12. The sequence GRRNGLCENPRG returned a protein stability index of 0.657 ± 0.0077. GRRPPWRFSFPF registered a protein stability index of 0.769 ± 0.063. The result for GRRRDREAVVPW reads 0.732 ± 0.032; that for GRRRGWAWGVWG, 0.683 ± 0.0084. Sequence GRRVPGPLRSSE registered a protein stability index of 0.709 ± 0.085.

GRSVSGYGSFID: the protein stability index worked out at 0.686 ± 0.017. Under GRVAMAVSGGVG stands 0.638 ± 0.023. Sequence GRVGFGSGAWLR showed a protein stability index of 0.669 ± 0.0021. GRVGGRAGGRGR gave a protein stability index of 0.691 ± 0.039. In turn, GRVGGRSGGRGR came in with a protein stability index of 0.68 ± 0.013. GRVGSLCGWLWR came in with a protein stability index of 0.722 ± 0.02. Regarding GRVRARGRRGKG, the protein stability index was found to be 0.625 ± 0.058. The sequence GRVRFVCVGLGG had a protein stability index of 0.639 ± 0.047. For GRWRIVSLEELQ, the protein stability index amounted to 0.724 ± 0.035.

GRYLGARRGRAF: the protein stability index stood at 0.68 ± 0.078. For the sequence GRYSECCSGGGG, the protein stability index stood at 0.674 ± 0.015. GSCGCLSVVSGR yielded a protein stability index of 0.713 ± 0.044. As to GSCGWCGVARWG, the protein stability index is 0.762 ± 0.05. Sequence GSERGGRSRGRG returned a protein stability index of 0.665 ± 0.0059.

GSFVEEVFRVKS: the protein stability index was found to be 0.6646 ± 0.0061. GSGRNKGLWRIW showed a protein stability index of 0.725 ± 0.04. Sequence GSGSVWQGLGSG displayed a protein stability index of 0.711 ± 0.032. As for GSGTPRTPCLSH, the protein stability index was 0.642 ± 0.04. The result for GSLASRGVFVVV reads 0.614 ± 0.042. The result for GSNRLYRGVTIT reads 0.627 ± 0.0082; that for GSNRTLSLYCVG, 0.633 ± 0.016; that for GSPRFSNGCEYF, 0.59 ± 0.026.

GSREHYGLFLGH displayed a protein stability index of 0.673 ± 0.032. GSRSSDTGGRLM displayed a protein stability index of 0.6819 ± 0.00074. Turning to GSRVGRATGRRR, the protein stability index amounted to 0.709 ± 0.014. For the sequence GSRWRISYQQVL, the protein stability index is 0.623 ± 0.037. GSSGRFFHVVVF came in with a protein stability index of 0.644 ± 0.074. Turning to GSSPCHNEESGT, the protein stability index worked out at 0.693 ± 0.014. GSVGWRGGEGRW: the protein stability index was determined as 0.59 ± 0.11.

The values above are taken from the supplement of paper PMC10724198.
